Holding throughout (assay): Biacore SPR
On the technique in general: Surface plasmon resonance follows binding to a sensor surface in real time, without labels.

Assay [1] has as its target recombinant human FcγRIIb protein (R&D Systems) (human) (UniProt P31994).
For assay [2], the target named is human FcγRI (human) (UniProt P12314).
Assay [3] concerns the target human V158 FcγRIIIa (human) (UniProt P08637).
In assay [4] the target is human H131 FcγRIIa (human) (UniProt P12318).

In general, Kd refers to the free concentration of one partner at which half of the binding sites on the other are occupied at equilibrium, for simple one-to-one binding.

human FcγRI (human), sequence (P12314 16-288): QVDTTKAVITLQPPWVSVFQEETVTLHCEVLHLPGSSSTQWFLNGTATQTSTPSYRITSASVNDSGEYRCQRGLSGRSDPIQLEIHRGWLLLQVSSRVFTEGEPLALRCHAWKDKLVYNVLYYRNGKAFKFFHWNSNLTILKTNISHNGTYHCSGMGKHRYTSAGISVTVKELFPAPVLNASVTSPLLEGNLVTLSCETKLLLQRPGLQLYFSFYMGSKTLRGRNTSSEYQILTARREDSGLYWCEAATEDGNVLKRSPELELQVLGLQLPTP
recombinant human FcγRIIb protein (R&D Systems) (human), sequence (P31994 46-217): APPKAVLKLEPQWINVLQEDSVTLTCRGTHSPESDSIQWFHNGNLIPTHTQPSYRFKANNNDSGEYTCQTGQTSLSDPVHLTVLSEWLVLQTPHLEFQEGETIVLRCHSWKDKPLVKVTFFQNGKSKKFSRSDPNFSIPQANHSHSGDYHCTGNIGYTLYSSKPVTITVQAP

For the substance “anti-CD19 antibody HuAM4G7 IgG1 Fc variant S239D/S267E”, the Kd in assay [1] worked out at 12 nM; in assay [2], 0.17 nM; in assay [3], 62 nM; in assay [4] it was 700 nM.

Values taken from US20230272114A1.
